This is an account of results in article PMC7955952.

Substrate in this data set: Nc1ncnc2c1ncn2[C@@H]1O[C@H](COP(=O)(O)OP(=O)(O)OP(=O)(O)O)[C@@H](O)[C@H]1O
Kind of data set: Michaelis–Menten saturation kinetics. The data set is classed as biochemical, Homo sapiens. The following applies: Mn2+ ATP-binding pocket.

B1: Focal adhesion kinase (FAK) (Homo sapiens) (protein)
chain: ETDDYAEIIDEEDTYTMPSTRDYEIQRERIELGRCIGEGQFGDVHQGIYMSPENPALAVAIKTCKNCTSDSVREKFLQEALTMRQFDHPHIVKLIGVITENPVWIIMELCTLGELRSFLQVRKYSLDLASLILYAYQLSTALAYLESKRFVHRDIAARNVLVSSNDCVKLGDFGLSRYMEDSTYYKASKGKLPIKWMAPESINFRRFTSASDVWMFGVCMWEILMHGVKPFQGVKNNDVIGRIENGERLPMPPNCPPTLYSLMTKCWAYDPSRRPRFTELKAQLSTILEEEKAQQEERMRMESRRQ
As a reminder, the Km is the concentration of substrate that gives half-maximal velocity. In the case of B1, the Michaelis constant (Km) was determined as 6.4 ± 1.2 µM.
